{"source": "paper PMC3734299", "about": "“Farnesyl Phosphatase, a Corpora allata Enzyme Involved in Juvenile Hormone Biosynthesis in Aedes aegypti” (PLoS ONE, 2013)", "molecules": {"B1": {"name": "AaFPPase-2 (Aedes aegypti) (protein)", "chain": "MDKSHIRHLLDLSKEEKKAFLDSFDAIMSDCDGVVWNFTGPIPGVDEALQLLKQNGKKLAFISNNGMRTMDEYREKFSKLGIESQEHDIVHPALTTVKYLKSVNMQDAVYCIGTEVFKNYLRSEGFTVLDGPTERLPDGGAANAVRTFASYFTDTSGPAVGAVVVDIDVNVSLSHLMKAKCYLDRNPDCLLLVGATDYVIPLGDNMDVIGPGYFIDILEKATGRRALVLGKPGQALSEFILEQFHVTQPERTLFIGDMLPQDMGFGARCGFQKVLMLSGGTTKAMMFAHNKPEELPNFYADSFADFIQLYKDVMD", "notes": "His-tagged, expressed in E. coli, purified on HiTrap chelating and PD-10 columns, ~35 kDa"}}, "key": {"[1]": {"tested_on": "T1, AaFPPase-1", "T1 construct": "His-tagged, expressed in E. coli, purified on HiTrap chelating and PD-10 columns, ~35 kDa", "test": "malachite green phosphate release", "assay_type": "biochemical, Aedes aegypti", "settings": "100 mM MES pH 6.0, 2 mM MgCl2, 37 °C; read-out: Km μM ±SE", "description": "malachite green phosphate release on AaFPPase-1"}, "[2]": {"target": "T2, AaFPPase-2 (Aedes aegypti, UniProt Q0IF21)", "T2 construct": "gene 5568744; His-tagged, expressed in E. coli, purified on HiTrap chelating and PD-10 columns, ~35 kDa", "T2 sequence (Q0IF21 1-315)": "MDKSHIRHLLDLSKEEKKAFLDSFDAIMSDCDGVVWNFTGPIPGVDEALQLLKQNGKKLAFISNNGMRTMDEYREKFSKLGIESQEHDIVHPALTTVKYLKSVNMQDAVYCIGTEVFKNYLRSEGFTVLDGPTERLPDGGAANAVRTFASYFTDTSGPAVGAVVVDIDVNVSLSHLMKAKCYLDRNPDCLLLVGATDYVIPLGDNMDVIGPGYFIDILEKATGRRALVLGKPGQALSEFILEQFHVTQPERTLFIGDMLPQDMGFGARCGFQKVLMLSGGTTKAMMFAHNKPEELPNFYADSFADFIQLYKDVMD", "test": "p-NPP phosphatase assay, inhibition", "assay_type": "biochemical", "settings": "inhibitor 0 to 40 µM, 10 min pre-incubation"}, "[3]": {"tested_on": "T1, AaFPPase-1", "test": "p-NPP phosphatase assay, 96-well plate", "assay_type": "biochemical, Aedes aegypti", "settings": "Mg2+ cofactor; optimum pH 6.0"}, "[4]": {"target": "T2, AaFPPase-2", "test": "malachite green phosphate release", "assay_type": "biochemical", "settings": "100 mM MES pH 6.0, 2 mM MgCl2, 37 °C; read-out: Km μM ±SE"}, "[5]": {"substrate": "O=[N+]([O-])c1ccc(OP(=O)(O)O)cc1", "test": "p-NPP phosphatase assay, 96-well plate", "assay_type": "biochemical, Aedes aegypti", "settings": "Mg2+ cofactor, optimum pH 6.0"}, "[6]": {"substrate": "CC(C)=CCC/C(C)=C/CC/C(C)=C/CO[P@@](=O)(O)OP(=O)(O)O", "test": "malachite green phosphate release", "assay_type": "biochemical, Aedes aegypti", "settings": "100 mM MES pH 6.0, 2 mM MgCl2, 37 °C"}, "[7]": {"substrate": "CC(C)=CCC/C(C)=C/COP(=O)(O)OP(=O)(O)O", "test": "malachite green phosphate release", "assay_type": "biochemical, Aedes aegypti", "settings": "100 mM MES pH 6.0, 2 mM MgCl2, 37 °C"}}}
{"molecule": "CC(C)=CCC/C(C)=C/COP(=O)(O)OP(=O)(O)O", "note": "[GPP]", "values": [{"measurement": "Km", "setting": "[1]", "result": "184 ± 14.2", "unit": "µM"}]}
{"molecule": "CC(=O)N[C@@H](CSC/C=C(\\C)CC/C=C(\\C)CC/C=C(\\C)CCC=C(C)C)C(=O)O", "note": "[AGGC]", "values": [{"measurement": "inhibition", "setting": "[2]", "result": "AGGC was a potent inhibitor of AaFPPase-1 and AaFPPase-2 (Figure S3)"}]}
{"molecule": "CC(C)=CCC/C(C)=C/CC/C(C)=C/COP(=O)(O)OP(=O)(O)O", "note": "[FPP]", "values": [{"measurement": "Km", "setting": "[1]", "result": "222 ± 11", "unit": "µM"}]}
{"molecule": "O=[N+]([O-])c1ccc(OP(=O)(O)O)cc1", "note": "[p-NPP]", "values": [{"measurement": "Km", "setting": "[3]", "result": "3.96 ± 0.127", "unit": "mM"}]}
{"molecule": "C=C(C)CCO[P@@](=O)(O)OP(=O)(O)O", "note": "[IPP]", "values": [{"measurement": "Km", "setting": "[1]", "result": "> 900", "unit": "µM"}, {"measurement": "Km", "setting": "[4]", "result": "> 900", "unit": "µM"}]}
{"molecule": "B1", "values": [{"measurement": "Km", "setting": "[5]", "result": "315.5 ± 46.9", "unit": "µM"}, {"measurement": "Km", "setting": "[6]", "result": "221.02 ± 15.62", "unit": "µM"}, {"measurement": "Vmax", "setting": "[6]", "result": 5.77, "unit": "µmol/min/mg"}, {"measurement": "kcat", "setting": "[6]", "result": 2.98, "unit": "s⁻¹"}, {"measurement": "kcat/Km", "setting": "[6]", "result": 13200, "unit": "M⁻¹ s⁻¹"}, {"measurement": "Km", "setting": "[7]", "result": "273.98 ± 2.52", "unit": "µM"}, {"measurement": "Vmax", "setting": "[7]", "result": 28.3, "unit": "µmol/min/mg"}, {"measurement": "kcat", "setting": "[7]", "result": 17.5, "unit": "s⁻¹"}, {"measurement": "kcat/Km", "setting": "[7]", "result": 63000, "unit": "M⁻¹ s⁻¹"}]}
